Assay [1] deals with beta-amyloid protein (BAP) residues 1-28, synthetic peptide (Homo sapiens (Human)) (UniProt P05067). Briefly: BAP (1-28) affinity column after heparitinase/heparinase digestion.
For assay [2], the target named is β/A4 (1-28) with three amino acid substitutions of the putative heparin binding domain (histidine, histidine and lysine changed to glycine) (UniProt P05067). Briefly: affinity column chromatography of 125I-HSPG, mutated versus normal β/A4 (1-28) column.
In assay [3] the target is beta-amyloid protein (BAP) residues 1-28, synthetic peptide (Homo sapiens (Human)) (UniProt P05067). Briefly: BAP (1-28) affinity column, no unlabeled competing ligand.
The target is the same in assay [4]. The assay is described as follows: competition with 125I-HSPG for binding to the BAP (1-28) affinity column.

beta-amyloid protein (BAP) residues 1-28, synthetic peptide (Homo sapiens (Human)), sequence (P05067 672-699 limits assumed): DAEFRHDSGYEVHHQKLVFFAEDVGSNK

“heparitinase/heparinase-digested 125I-labeled HSPG, A0AAA9TDR0 23-4401” came in with a percent still able to bind in comparison to undigested controls in assay [1] of 61%.
“high Mr heparan sulfate proteoglycan (HSPG) isolated from the culture media of bovine aortic endothelial cells (from UniProt A0AAA9TDR0 23-4401)” displayed a percent decrease in binding against normal β/A4 (1-28) in assay [2] of 50 to 60%.
As for “high Mr heparan sulfate proteoglycan (HSPG) isolated from the culture media of bovine aortic endothelial cells, A0AAA9TDR0 23-4401”, in assay [3], the percent bound stood at 21.6%.
In the case of “low density heparan sulfate proteoglycan isolated from the mouse Engelbreth-Holm-Swarm (EHS) sarcoma (perlecan), Q05793 22-3707”, the IC50 (as a rule, the concentration that gives 50% inhibition) in assay [4] was under 1 µM.

The values above are taken from US6340783.
